The source of these data is patent publication US20250353912A1 (NEW YORK UNIVERSITY, published 2025).

Assay [1] deals with T1, HLA-A*01:01 in complex with the BTK peptide … conjugated with Ibrutinib (human, ibrutinib covalently bound to Cys).
T1 construct: also called HLA-A*01:01_BTK-Ibrutinib
Description: phage display selection; MBBA.

Assay [2] deals with T2, HLA-A*03:01 in complex with the KRAS (wild type) peptide … (human).
T2 construct: also called HLA-A*03:01_WTRAS
Description: MBBA titration of purified IgG (FIG. 11).

Assay [3] deals with T3, HLA-A*11:01 in complex with the KRAS (wild type) peptide … (human).
T3 construct: also called HLA-A*11:01_WTRAS
Description: MBBA titration of purified IgG (FIG. 11).

The target in assay [4] is T4, HLA-A*02:01 in complex with the EGFR peptide … conjugated with osimertinib (human, osimertinib covalently bound to Cys).
T4 construct: also called HLA-A*02:01_EGFR-osimertinib; osimertinib-EGFR/HLA-A*02
Description: phage display selection; MBBA.

Assay [5] addresses T2, HLA-A*03:01 in complex with the KRAS …. The assay is described as follows: flow cytometry on peptide-loaded Raji cells (FIG. 16). (In general: Flow cytometry measures light scatter and fluorescence of single cells or particles in a stream.)

B1: IBA1-7 (antibody, V domains shown)
VH: EVQLVESGGGLVQPGGSLRLSCAASGFTLSSSSIHWVRQAPGKGLEWVASISSYYGSTSYADSVKGRFTISADTSKNTAYLQMNSLRAEDTAVYYCARMHYSWQEYYSYDWGMDYWGQGTLVTVSS
VL: DIQMTQSPSSLSASVGDRVTITCRASQSVSSAVAWYQQKPGKAPKLLIYSASSLYSGVPSRFSGSRSGTDFTLTISSLQPEDFATYYCQQSYWWKSLVTFGQGTKVEIKR
notes: phage-display clone
On to B1, for which the binding result in assay [1] is recorded as “binds”.

B2: AMRA3-18 (antibody, human IgG1, V domains shown)
VH: EVQLVESGGGLVQPGGSLRLSCAASGFTVSYSSIHWVRQAPGKGLEWVASISSSSGYTSYADSVKGRFTISADTSKNTAYLQMNSLRAEDTAVYYCARYAWWAHGLDYWGQGTLVTVSS
VL: DIQMTQSPSSLSASVGDRVTITCRASQSVSSAVAWYQQKPGKAPKLLIYSASSLYSGVPSRFSGSRSGTDFTLTISSLQPEDFATYYCQQGSYTYRLITFGQGTKVEIKR
notes: phage-display clone; purified as human IgG1/kappa; also called AMRA3-18 hIgG1
B2: the binding result in assay [2] and in assay [3] was “no binding” in each case.

B3: OEA2-12 (antibody, V domains shown)
VH: EVQLVESGGGLVQPGGSLRLSCAASGFTIYSSSIHWVRQAPGKGLEWVASISSYYGYTSYADSVKGRFTISADTSKNTAYLQMNSLRAEDTAVYYCARYQYYGSLYYSQQWAMDYWGQGTLVTVSS
VL: DIQMTQSPSSLSASVGDRVTITCRASQSVSSAVAWYQQKPGKAPKLLIYSASSLYSGVPSRFSGSRSGTDFTLTISSLQPEDFATYYCQQYDWNYYLVTFGQGTKVEIKR
notes: phage-display clone
For B3, the binding result in assay [4] is on record as “binds”.

B4: AMRA3-7 (antibody, human IgG1, V domains shown)
VH: EVQLVESGGGLVQPGGSLRLSCAASGFTFSSYSIHWVRQAPGKGLEWVASIYSSYGYTSYADSVKGRFTISADTSKNTAYLQMNSLRAEDTAVYYCARGGWYPAMDYWGQGTLVTVSS
VL: DIQMTQSPSSLSASVGDRVTITCRASQSVSSAVAWYQQKPGKAPKLLIYSASSLYSGVPSRFSGSRSGTDFTLTISSLQPEDFATYYCQQISYVYSLITFGQGTKVEIKR
notes: phage-display clone; purified as human IgG1/kappa; also called AMRA3-7 hIgG1
As to B4, the binding result in assay [2] and in assay [3] was “no binding” in each case.

B5: IBA1-19 (antibody, V domains shown)
VH: EVQLVESGGGLVQPGGSLRLSCAASGFTFSYSSIHWVRQAPGKGLEWVASIYPSSGYTSYADSVKGRFTISADTSKNTAYLQMNSLRAEDTAVYYCARGWWYWMAWDYAMDYWGQGTLVTVSS
VL: DIQMTQSPSSLSASVGDRVTITCRASQSVSSAVAWYQQKPGKAPKLLIYSASSLYSGVPSRFSGSRSGTDFTLTISSLQPEDFATYYCQQSWMSDSLITFGQGTKVEIKR
notes: phage-display clone
For B5, the binding result in assay [1] is “binds”.

B6: IBA1-21 (antibody, V domains shown)
VH: EVQLVESGGGLVQPGGSLRLSCAASGFTISSSSIHWVRQAPGKGLEWVASISSYYGYTSYADSVKGRFTISADTSKNTAYLQMNSLRAEDTAVYYCARYYSYSSGYGYYDYFDWGAMDYWGQGTLVTVSS
VL: DIQMTQSPSSLSASVGDRVTITCRASQSVSSAVAWYQQKPGKAPKLLIYSASSLYSGVPSRFSGSRSGTDFTLTISSLQPEDFATYYCQQMQYSGWLITFGQGTKVEIKR
notes: phage-display clone
Consider B6, for which the binding result in assay [1] was “binds”.

B7: IBA1-13 (antibody, V domains shown)
VH: EVQLVESGGGLVQPGGSLRLSCAASGFTLSSSSIHWVRQAPGKGLEWVASIYSSYGYTYYADSVKGRFTISADTSKNTAYLQMNSLRAEDTAVYYCARYYYYWYGGMDYWGQGTLVTVSS
VL: DIQMTQSPSSLSASVGDRVTITCRASQSVSSAVAWYQQKPGKAPKLLIYSASSLYSGVPSRFSGSRSGTDFTLTISSLQPEDFATYYCQQGHDMNPVTFGQGTKVEIKR
notes: phage-display clone
As to B7, in assay [1], the binding result was “binds”.

B8: OEA2-21 (antibody, V domains shown)
VH: EVQLVESGGGLVQPGGSLRLSCAASGFTFSSSYIHWVRQAPGKGLEWVASISPSYGYTSYADSVKGRFTISADTSKNTAYLQMNSLRAEDTAVYYCARDMYEWWHWAIDYWGQGTLVTVSS
VL: DIQMTQSPSSLSASVGDRVTITCRASQSVSSAVAWYQQKPGKAPKLLIYSASSLYSGVPSRFSGSRSGTDFTLTISSLQPEDFATYYCQQSSWGGLVTFGQGTKVEIKR
notes: phage-display clone
As to B8, the binding result in assay [4] is “binds”.

B9: AMRA11-15 (antibody, human IgG1, V domains shown)
VH: EVQLVESGGGLVQPGGSLRLSCAASGFTVYYSSIHWVRQAPGKGLEWVASIYSYYGSTYYADSVKGRFTISADTSKNTAYLQMNSLRAEDTAVYYCARGEKWALDYWGQGTLVTVSS
VL: DIQMTQSPSSLSASVGDRVTITCRASQSVSSAVAWYQQKPGKAPKLLIYSASSLYSGVPSRFSGSRSGTDFTLTISSLQPEDFATYYCQQFDFQYLITFGQGTKVEIKR
notes: phage-display clone; purified as human IgG1/kappa
On to B9, for which the binding result in assay [2] and in assay [3] was “no binding” each time.

B10: P2AMR-1 in the human IgG1 format (antibody, V domains shown)
VH: QVQLVQSEPEVKKPGSSVKLSCKASGGTFSTDAITWVRQAPGQGLEYMGGIIPLLDSVDYAQRFQGRVTVSADKSTGTAYMEVRSLGSEDTAKYYCAKWSSVDTGLDYWGQGTLVTVSS
VL: QSVLIQPRSVSGSPGQSVTISCTGTSSDVGGYNYVSWYQQHPGKAPKLMIYDVSKRPSGVPDRFSGSKSGNTASLTVSGLQAEDEADYYCGSYADTDTIVFGTGTKLTVL
notes: human IgG1; also called P2AMR-1 IgG
On to B10, for which the binding result in assay [5] is given as “no binding”.

B11: IBA1-8 (antibody, V domains shown)
VH: EVQLVESGGGLVQPGGSLRLSCAASGFTISYSSIHWVRQAPGKGLEWVASIYPSYGSTSYADSVKGRFTISADTSKNTAYLQMNSLRAEDTAVYYCARWQGYYQPALDYWGQGTLVTVSS
VL: DIQMTQSPSSLSASVGDRVTITCRASQSVSSAVAWYQQKPGKAPKLLIYSASSLYSGVPSRFSGSRSGTDFTLTISSLQPEDFATYYCQQPYYPLITFGQGTKVEIKR
notes: phage-display clone
For B11, in assay [1], the binding result is recorded as “binds”.

B12: AMRA311-17 (antibody, human IgG1, V domains shown)
VH: EVQLVESGGGLVQPGGSLRLSCAASGFTISSSSIHWVRQAPGKGLEWVASISSYSGSTYYADSVKGRFTISADTSKNTAYLQMNSLRAEDTAVYYCARYPYGSHVYTGLDYWGQGTLVTVSS
VL: DIQMTQSPSSLSASVGDRVTITCRASQSVSSAVAWYQQKPGKAPKLLIYSASSLYSGVPSRFSGSRSGTDFTLTISSLQPEDFATYYCQQSSSSLITFGQGTKVEIKR
notes: phage-display clone; purified as human IgG1/kappa; also called AMRA311-17 hIgG1
On to B12, for which the binding result in assay [2] and in assay [3] was “no binding” each time.

B13: AMRA3-22 (antibody, human IgG1, V domains shown)
VH: EVQLVESGGGLVQPGGSLRLSCAASGFTFYSSSIHWVRQAPGKGLEWVAYIYSSSGYTSYADSVKGRFTISADTSKNTAYLQMNSLRAEDTAVYYCARPVNYYYQGALDYWGQGTLVTVSS
VL: DIQMTQSPSSLSASVGDRVTITCRASQSVSSAVAWYQQKPGKAPKLLIYSASSLYSGVPSRFSGSRSGTDFTLTISSLQPEDFATYYCQQSDMPPITFGQGTKVEIKR
notes: phage-display clone; purified as human IgG1/kappa; also called AMRA3-22 hIgG1
For B13, the binding result in assay [2] and in assay [3] was “no binding” each time.

B14: OEA2-16 (antibody, V domains shown)
VH: EVQLVESGGGLVQPGGSLRLSCAASGFTFSSSSIHWVRQAPGKGLEWVASISSSSGSTSYADSVKGRFTISADTSKNTAYLQMNSLRAEDTAVYYCARSPSSPYFMSWGWYWQYGIDYWGQGTLVTVSS
VL: DIQMTQSPSSLSASVGDRVTITCRASQSVSSAVAWYQQKPGKAPKLLIYSASSLYSGVPSRFSGSRSGTDFTLTISSLQPEDFATYYCQQSSSSLITFGQGTKVEIKR
notes: phage-display clone
As for B14, in assay [4], the binding result is “binds”.

B15: OEA2-1 (antibody, V domains shown)
VH: EVQLVESGGGLVQPGGSLRLSCAASGFTFSSSSIHWVRQAPGKGLEWVASISSSSGSTSYADSVKGRFTISADTSKNTAYLQMNSLRAEDTAVYYCARYYGYVWGGYWGWWYSKALDYWGQGTLVTVSS
VL: DIQMTQSPSSLSASVGDRVTITCRASQSVSSAVAWYQQKPGKAPKLLIYSASSLYSGVPSRFSGSRSGTDFTLTISSLQPEDFATYYCQQSSSSLITFGQGTKVEIKR
notes: phage-display clone
In the case of B15, the binding result in assay [4] was “binds”.

B16: AMRA311-16 (antibody, human IgG1, V domains shown)
VH: EVQLVESGGGLVQPGGSLRLSCAASGFTISSSSIHWVRQAPGKGLEWVAYISSYSGYTYYADSVKGRFTISADTSKNTAYLQMNSLRAEDTAVYYCARYWYGHYHSYFGLDYWGQGTLVTVSS
VL: DIQMTQSPSSLSASVGDRVTITCRASQSVSSAVAWYQQKPGKAPKLLIYSASSLYSGVPSRFSGSRSGTDFTLTISSLQPEDFATYYCQQSSSSLITFGQGTKVEIKR
notes: phage-display clone; purified as human IgG1/kappa; also called AMRA311-16 hIgG1
Consider B16, for which the binding result in assay [2] and in assay [3] was “no binding” in each case.
